How the values were obtained:
[1] = biological target: recombinant human APC/C^CDH1 (Anaphase Promoting Complex/Cyclosome with CDH1) (human, UniProt Q9H1A4;Q9UJX6;P30260;Q9UJX5;Q9UJX4;Q13042;Q9UJX3;Q9UJX2;Q9UM13;Q9NYG5;Q9BS18;P60 …); test: enzyme inhibition
[2] = biological target: recombinant human APC/C (without CDH1) (human, UniProt Q9H1A4;Q9UJX6;P30260;Q9UJX5;Q9UJX4;Q13042;Q9UJX3;Q9UJX2;Q9UM13;Q9NYG5;Q9BS18;P60 …); test: enzyme inhibition

| Ki [1] | Ki [2] | Binder |
| --- | --- | --- |
| ≤ 2.5 nM | – | EMI1^DLZT (D-box, Linker, ZBR, Tail; C-terminal APC/C inhibitory domain, residues 305-447) (domain or fragment) NNNKFSPHASTREYVMFRTPLASVQKSAAQTSLKKDAQTKLSNQGDQKGSTYSRHNEFSEVAKTLKKNESLKACIRCNSPAKYDCYLQRATCKREGCGFDYCTKCLCNYHTTKDCSDGKLLKASCKIGPLPGTKKSKKNLRRL |
| – | 220 ± 37 nM | EMI1^D(Mut)LZT (EMI1^DLZT with alanines in place of Arg322 and Leu325 of the D-box RxxL motif) (domain or fragment) NNNKFSPHASTREYVMFATPAASVQKSAAQTSLKKDAQTKLSNQGDQKGSTYSRHNEFSEVAKTLKKNESLKACIRCNSPAKYDCYLQRATCKREGCGFDYCTKCLCNYHTTKDCSDGKLLKASCKIGPLPGTKKSKKNLRRL |
| – | 2000 ± 400 nM | EMI1^ZT (ZBR and Tail; residues 363-447) (domain or fragment) SEVAKTLKKNESLKACIRCNSPAKYDCYLQRATCKREGCGFDYCTKCLCNYHTTKDCSDGKLLKASCKIGPLPGTKKSKKNLRRL |
